# Read-outs that look alike come from different tables or passages of the source.
# B1: CAST crystal DNA 8E3D (dsDNA)
# DNA 1: GGTAAAAGACCCCTCCCCAAAT
# DNA 2: ATTTGGGGAGGGGTCTTTTACC
# B2: GaCCC crystal DNA 7N5W (dsDNA)
# DNA 1: GGGACCCTTCATGTTT
# DNA 2: CAAACATGAAGGGTCC
# B3: CAST crystal DNA 8E3E (dsDNA)
# DNA 1: GGTAAAAGACCCCTCCCCAAA
# DNA 2: CTTTGGGGAGGGGTCTTTTAC
# B4: GaCCC crystal DNA 7N5U (dsDNA)
# DNA 1: GGGACCCTTGATGTTT
# DNA 2: CAAACATCAAGGGTCC
# B5: oligo #6 CAST 16 bp (dsDNA)
# DNA 1: AAGACCCCTCCCCGAA
# DNA 2: TTCGGGGAGGGGTCTT
# B6: GaCCC crystal DNA 7N5V (dsDNA)
# DNA 1: GGGACCCTTGATGTTT
# DNA 2: AAACATCAAGGGTCCC
# Key:
# [1] = target: T1, ZBTB7A ZF1-4 short fragment (Homo sapiens, UniProt O95365 370-500); experiment: X-ray crystallography
# [2] = target: T1, ZBTB7A ZF1-4 short fragment; experiment: X-ray crystallography; remark: listed apart in the source
# [3] = target: T2, ZBTB7A long fragment (Homo sapiens, UniProt O95365 341-505); experiment: X-ray crystallography
# [4] = target: T1, ZBTB7A ZF1-4 short fragment; experiment: X-ray crystallography; remark: listed apart in the source
# [5] = target: T1, ZBTB7A ZF1-4 short fragment; experiment: FP
# [6] = target: T2, ZBTB7A long fragment; experiment: FP
# [7] = target: T1, ZBTB7A ZF1-4 short fragment; experiment: X-ray crystallography; remark: listed apart in the source
# T1 sequence (O95365 370-500): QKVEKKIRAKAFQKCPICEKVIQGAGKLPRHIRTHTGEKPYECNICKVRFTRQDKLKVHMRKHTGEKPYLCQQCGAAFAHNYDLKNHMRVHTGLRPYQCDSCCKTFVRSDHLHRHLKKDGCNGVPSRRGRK
# T2 sequence (O95365 341-505): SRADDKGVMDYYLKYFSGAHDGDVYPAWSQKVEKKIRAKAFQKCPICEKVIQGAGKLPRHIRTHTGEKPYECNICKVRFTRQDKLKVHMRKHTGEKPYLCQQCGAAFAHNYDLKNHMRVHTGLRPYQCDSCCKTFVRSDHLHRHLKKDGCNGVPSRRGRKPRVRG
binder,measurement,setting,value
B1,binding result,[1],binds
B2,binding result,[2],binds
B3,binding result,[3],binds
B4,binding result,[4],binds
B5,Kd,[5],~80 nM
same,Kd,[6],~80 nM
B6,binding result,[7],binds

# Reference: article PMC9932118
